Measurements: patent publication US11306156
One block for each substance: values may come before it.

How the values were obtained:
[1] = biological target: tissue factor (TF) antigen (UniProt P13726); test: SPR (ProteOn XPR36), Fab captured by His tag on anti-penta-His surface, TF injected as analyte, 1:1 fit
[2] = biological target: tissue factor (TF) antigen (UniProt P13726); test: SPR (ProteOn XPR36), Fab captured by His tag on anti-penta-His surface, TF injected as analyte; against wild-type D3H44 Fab
[3] = biological target: tissue factor (TF) antigen (UniProt P13726); test: SPR; log ratio against wild-type D3H44 Fab; estimated value
[4] = biological target: tissue factor (TF) antigen (UniProt P13726); test: SPR (ProteOn XPR36): Fab captured via His tag on anti-penta-His, TF as analyte, 1:1 fit; estimated value, taken from the same Fab with another L chain tag
[5] = biological target: tissue factor (TF) antigen (UniProt P13726); test: SPR (ProteOn XPR36), His-tagged Fab captured on anti-penta His, TF as analyte; against wild-type D3H44 Fab
[6] = biological target: tissue factor (TF) antigen (UniProt P13726); test: SPR (ProteOn XPR36), His-tagged Fab captured on anti-penta His, TF as analyte, 1:1 fit
[7] = biological target: tissue factor (TF) antigen (UniProt P13726); test: SPR (ProteOn XPR36), Fab captured on anti-penta-His surface, TF as analyte, 1:1 fit
[8] = biological target: tissue factor (TF) antigen (UniProt P13726); test: SPR (ProteOn XPR36), Fab captured on anti-penta-His surface, TF as analyte; reference is the wild-type D3H44 Fab
[9] = biological target: tissue factor (TF) antigen (UniProt P13726); test: SPR; log ratio against wild-type D3H44 Fab
[10] = biological target: tissue factor (TF) antigen (UniProt P13726); test: SPR (ProteOn XPR36): Fab captured via His tag on anti-penta-His, TF as analyte, 1:1 fit
[11] = biological target: tissue factor (TF) antigen (UniProt P13726); test: SPR, Fab captured on anti-penta-His, TF as analyte, 1:1 fit
[12] = biological target: tissue factor (TF) antigen (UniProt P13726); test: vs wild-type D3H44 Fab (KD 0.157 nM); SPR, Fab captured on anti-penta-His, TF as analyte

Chain of tissue factor (TF) antigen (P13726 33-251 limits assumed): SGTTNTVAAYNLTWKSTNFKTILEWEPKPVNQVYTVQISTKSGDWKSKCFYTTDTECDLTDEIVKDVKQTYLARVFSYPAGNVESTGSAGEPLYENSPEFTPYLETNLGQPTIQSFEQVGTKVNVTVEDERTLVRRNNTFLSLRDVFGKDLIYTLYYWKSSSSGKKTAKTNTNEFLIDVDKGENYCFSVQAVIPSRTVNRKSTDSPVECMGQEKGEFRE

Substance: D3H44 Fab heterodimer, H1 D146G_H172R_Q179K / L1 Q38E_Q124E_Q160E_T180E (H1L1 Fab of LCCA Set # 9064)
Change in median values of KD of h1|1 Fab heterodimer compared to wild type (-(log(KD design)-log(KD wt))) [5]: -0.05
Kd [6]: 0.17 nM

Substance: D3H44 Fab heterodimer, H L143E_K145T_Q179E / L Q124K_T178R (H1L1 of LCCA sets 9645 and 9648)
Change in KD with respect to wild type (-(log(KD design) - log(KD wt))) [3]: 0.05
Change in KD with respect to wild type (-(log(KD design) - log(KD wt))) [9]: 0.05
Kd [4]: 0.14 nM
Kd [10]: 0.14 nM

Substance: D3H44 Fab heterodimer H1L1 of LCCA sets 9523 and 9524 (H1 L124R_S186R; L1 V133G_S176D_T178D)
Kd [7]: 0.2 nM
Change in median values of KD of h1l1 Fab heterodimer compared to wild type (-(log(KD design)-log(KD wt))) [8]: -0.1

Substance: D3H44 H1L1 Fab heterodimer of LCCA Sets # 9743 and 9744 (H1 L143R, L1 Q124E_V133E_S176L)
Kd [1]: 0.28 nM
change in median KD compared to wild type, -(log(KD design)-log(KD wt)) [2]: -0.25 log

Substance: D3H44 Fab heterodimer H1L1 of LCCA set 9226 (H1 L124E_L143D_K145T; L1 Q124K_V133G_S176R_T178R)
Kd [7]: 0.16 nM
Change in median values of KD of h1l1 Fab heterodimer compared to wild type (-(log(KD design)-log(KD wt))) [8]: -0.02

Substance: D3H44 Fab heterodimer H1L1 of LCCA sets 9536 and 9526 (H1 L124R_S186R; L1 V133G_S176D_T178D_T180E)
Kd [7]: 0.17 nM
Change in median values of KD of h1l1 Fab heterodimer compared to wild type (-(log(KD design)-log(KD wt))) [8]: -0.04

Substance: D3H44 H1L1 Fab heterodimer of LCCA Set # 9103 (H1 L124A_S186K, L1 Q124E_V133W_T180E)
Kd [1]: 0.15 nM
change in median KD compared to wild type, -(log(KD design)-log(KD wt)) [2]: 0.02 log

Now from value to substance:

Kd [1]: 0.23 nM
change in median KD compared to wild type, -(log(KD design)-log(KD wt)) [2]: -0.17 log
Substance: D3H44 H1L1 Fab heterodimer of LCCA Sets # 9486, 9487, 9488 and 9489 (H1 L124R_S186K, L1 V133G_S176D_T178E_T180E)

Change in KD with respect to wild type (-(log(KD design) - log(KD wt))) [3]: 0.39
Kd [4]: 0.06 nM
Substance: D3H44 Fab heterodimer, H L143E_K145T_Q179D / L Q124R_Q160K_T178R (H1L1 of LCCA set 9623)

Change in median values of KD of h1|1 Fab heterodimer compared to wild type (-(log(KD design)-log(KD wt))) [5]: -0.03
Kd [6]: 0.17 nM
Substance: D3H44 Fab heterodimer, H1 H172R_S186R / L1 Q38E_Q124E_Q160E_T180E (H1L1 Fab of LCCA Set # 9075)

Kd [7]: 0.16 nM
Change in median values of KD of h1l1 Fab heterodimer compared to wild type (-(log(KD design)-log(KD wt))) [8]: -0.01
Substance: D3H44 Fab heterodimer H1L1 of LCCA set 9361 (H1 L124R_D146N_Q179K; L1 V133G_S176D_T178E_T180E)

Kd [1]: 0.28 nM
change in median KD compared to wild type, -(log(KD design)-log(KD wt)) [2]: -0.25 log
Substance: D3H44 H1L1 Fab heterodimer of LCCA Set # 9575 (H1 L143D_K145T_Q179E, L1 T178R)

Kd [11]: 0.29 nM
change in median KD compared to wild type, -(log(KD design)-log(KD wt)) [12]: -0.27
Substance: H1L1 Fab heterodimer of LCCA sets 9757 and 9758 (D3H44 Fab, H1 Q179K, L1 Q124E_Q160E_T178E)

Change in median values of KD of h1|1 Fab heterodimer compared to wild type (-(log(KD design)-log(KD wt))) [5]: -0.22
Kd [6]: 0.26 nM
Substance: D3H44 Fab heterodimer, H1 L143K_D146G / L1 Q124E_V133D (H1L1 Fab of LCCA Set # 9734)

Change in median values of KD of h1|1 Fab heterodimer compared to wild type (-(log(KD design)-log(KD wt))) [5]: -0.26
Kd [6]: 0.28 nM
Substance: D3H44 Fab heterodimer, H1 L124E_L143E_K145M / L1 Q124K_V133G_Q160K_S176R (H1L1 Fab of LCCA Set # 9248 and 9249)

Change in KD with respect to wild type (-(log(KD design) - log(KD wt))) [3]: -0.28
Change in KD with respect to wild type (-(log(KD design) - log(KD wt))) [9]: -0.28
Kd [4]: 0.3 nM
Kd [10]: 0.3 nM
Substance: D3H44 Fab heterodimer, H L143E_K145T_Q179E / L T178R (H1L1 of LCCA sets 9683 and 9684)

Kd [11]: 0.05 nM
change in median KD compared to wild type, -(log(KD design)-log(KD wt)) [12]: 0.51
Substance: H1L1 Fab heterodimer of LCCA sets 9869, 9871, 9874, 9876 and 9879 (D3H44 Fab, H1 S186R, L1 Q124E_Q160E_T180E)

Change in KD with respect to wild type (-(log(KD design) - log(KD wt))) [3]: -0.25
Change in KD with respect to wild type (-(log(KD design) - log(KD wt))) [9]: -0.25
Kd [4]: 0.28 nM
Kd [10]: 0.28 nM
Substance: D3H44 Fab heterodimer, H L143D_K145T_Q179E / L T178R (H1L1 of LCCA sets 9579 and 9575)
